Results reported in EP4086281A1 (China Immunotech (Beijing) Biotechnology Co., Ltd, dated 2022).

Target: T1, CD19 expressed by Raji cells (human lymphoma cell line) (human, UniProt P15391 20-556)
T1 construct: whole, on cells; On intact Raji cells in flow cytometry and co-culture; In the western blot it is the denatured protein of a Raji lysate (band of 95kD); also called CD19 protein in the Raji cells
T1 sequence (looked up): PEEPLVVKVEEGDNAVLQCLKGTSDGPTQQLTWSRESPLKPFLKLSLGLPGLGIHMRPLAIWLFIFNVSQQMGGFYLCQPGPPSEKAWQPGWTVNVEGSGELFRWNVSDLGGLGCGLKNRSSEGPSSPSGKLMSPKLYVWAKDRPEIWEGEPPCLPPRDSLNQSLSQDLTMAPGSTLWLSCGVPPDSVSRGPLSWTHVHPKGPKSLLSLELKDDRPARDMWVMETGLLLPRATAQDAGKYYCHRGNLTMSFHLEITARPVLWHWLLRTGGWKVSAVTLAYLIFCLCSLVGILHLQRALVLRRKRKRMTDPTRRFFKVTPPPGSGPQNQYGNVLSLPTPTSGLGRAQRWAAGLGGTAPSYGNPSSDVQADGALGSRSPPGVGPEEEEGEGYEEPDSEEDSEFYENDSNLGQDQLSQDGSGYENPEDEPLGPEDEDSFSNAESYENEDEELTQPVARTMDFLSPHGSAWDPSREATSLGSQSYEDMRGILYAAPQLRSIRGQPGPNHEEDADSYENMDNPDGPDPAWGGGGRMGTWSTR
Test: flow cytometry on Raji cells, antibody titrated from 0 to 375 nM, curve fitted with GraphPad

B1: monoclonal antibody 334 targeting CD19 (hybridoma CGMCC No. 17095) (antibody, V domains shown)
VH: QVQLQQSGAELVRPGASVKLSCKALGFIFTDYEIHWVKQTPVHGLEWIGAFHPGSGGSAYNQKFKGKATLTADKSSSTAYMELSSLTFEDSAVYHCTRQLGPDWGQGTLVTVS
VL: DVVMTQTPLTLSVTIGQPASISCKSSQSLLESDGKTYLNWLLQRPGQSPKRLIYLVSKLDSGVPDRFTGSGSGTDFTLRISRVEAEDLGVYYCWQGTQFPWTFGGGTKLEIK
notes: it is a hybridoma antibody detected with anti-mouse secondary antibodies
For B1, the Kd was 1.53 nM.
